For test [1], the target named is T1, CD33M, full length human CD33 protein expressed on transfected cells (human, UniProt P20138 18-303).
T1 construct: also called full length CD33
Kind of test: flow cytometry on cells transfected with CD33M; apparent Kd, one-site fit. How it is done:
(§1) Binding of sdAbs to human CD33 was assessed by flow cytometry. […] MOLM-13 cells were transiently transfected with a plasmid encoding a sequence comprising “CD33M” (SEQ ID NO: 112) or a plasmid encoding a sequence comprising a truncated version, “CD33m” (SEQ ID NO: 113). The sequence encoded by the CD33M plasmid includes the leader sequence, full extracellular domain, transmembrane domain, and cytoplasmic domain. The sequence encoded by the CD33m plasmid includes the leader sequence, the membrane proximal IgC2 domain, and the transmembrane domain. Untransfected HEK 293 cells were used as CD33-negative cells. Each cell type was plated at 30,000 cells/well in FACS buffer (PBS 1% BSA, 0.1% NaN₃ pH 7.4) on a 96-well round-bottom plate. The sdAbs were diluted in FACS buffer in a 3-fold, 11 point serial dilution. The sdAb dilutions were added to the plated cells, and assay plates were incubated for 30 minutes at 4° C. After washing twice in 150 μL of FACS buffer, cells in each well were resuspended in 100 μL of 1:2000 Alexa Fluor 647-conjugated Anti-Human IgG secondary diluted in FACS buffer and incubated at 4° C. for 30 minutes. The cells were washed twice more, then bound antibody was detected by flow cytometry.
(§2) Flow cytometric analysis was performed on an Intellicyte iQue Plus and fluorescence was plotted as median fluorescence intensity. The apparent affinity (Kd, nM) was determined using one site binding non-linear regression in PRISM graph software.

Test [2] concerns the target T1, CD33M, full length human CD33 protein …. Kind of test: flow cytometry on MOLM-13 cells transfected with CD33 (CD33M per Table 3), anti-human IgG Alexa Fluor 647 secondary, median fluorescence. How it is done: as §1, §2
For test [3], the target named is T2, CD33m, truncated human CD33 protein expressed on transfected cells (human, UniProt P20138 140-259).
T2 construct: leader and transmembrane domain are not in it; also called truncated CD33
T2 sequence (P20138 140-259 limits assumed): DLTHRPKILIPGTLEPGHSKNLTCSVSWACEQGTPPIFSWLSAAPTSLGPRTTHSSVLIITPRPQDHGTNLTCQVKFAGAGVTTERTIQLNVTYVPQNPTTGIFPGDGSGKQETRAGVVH
Kind of test: flow cytometry on cells transfected with truncated CD33m; apparent Kd, one-site fit. How it is done: as §1, §2

In test [4] the target is T1, CD33M, full length human CD33 protein …. Kind of test: flow cytometry on cells labelled CD33M-HEK-293, anti-human IgG Alexa Fluor 647 secondary, median fluorescence. How it is done:
Binding of sdAbs to human CD33 was assessed by flow cytometry. […] […] The sequence encoded by the CD33M plasmid includes the leader sequence, full extracellular domain, transmembrane domain, and cytoplasmic domain. The sequence encoded by the CD33m plasmid includes the leader sequence, the membrane proximal IgC2 domain, and the transmembrane domain. Untransfected HEK 293 cells were used as CD33-negative cells. Each cell type was plated at 30,000 cells/well in FACS buffer (PBS 1% BSA, 0.1% NaN₃ pH 7.4) on a 96-well round-bottom plate. The sdAbs were diluted in FACS buffer in a 3-fold, 11 point serial dilution. The sdAb dilutions were added to the plated cells, and assay plates were incubated for 30 minutes at 4° C. After washing twice in 150 μL of FACS buffer, cells in each well were resuspended in 100 μL of 1:2000 Alexa Fluor 647-conjugated Anti-Human IgG secondary diluted in FACS buffer and incubated at 4° C. for 30 minutes. The cells were washed twice more, then bound antibody was detected by flow cytometry.
as §2

T1 sequence (P20138 18-303): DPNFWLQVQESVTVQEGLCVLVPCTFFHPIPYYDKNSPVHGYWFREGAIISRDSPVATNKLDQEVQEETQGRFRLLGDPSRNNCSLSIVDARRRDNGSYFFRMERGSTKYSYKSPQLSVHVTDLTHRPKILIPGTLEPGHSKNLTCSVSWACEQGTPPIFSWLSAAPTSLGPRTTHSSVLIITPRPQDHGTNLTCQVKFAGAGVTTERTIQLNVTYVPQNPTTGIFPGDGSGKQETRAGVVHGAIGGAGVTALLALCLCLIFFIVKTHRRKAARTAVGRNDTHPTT

B1: 1H9 sdAb (1H9 VHH domain fused to human IgG1 xELL Fc region) (Fc fusion)
chain: EVQLQQSGGAVVQPGGSLRLSCAASGSIFSISIMGWYRQAPGKERELVASTTSSGTTNYVDSVKGRFTASRDNAKNTVYLQMNSLKPDDTAIYHCHAYIATTTDRGYRGYWGQGTQVTVDKTHTCPPCPAPGGPSVFLFPPKPKDTLMISRTPEVTCVVVDVSHEDPEVKFNWYVDGVEVHNAKTKPREEQYNSTYRVVSVLTVLHQDWLNGKEYKCKVSNKALPAPIEKTISKAKGQPREPQVYTLPPSRDELTKNQVSLTCLVKGFYPSDIAVEWESNGQPENNYKTTPPVLDSDGSFFLYSKLTVDKSRWQQGNVFSCSVMHEALHNHYTQKSLSLSPGK
notes: VHH-Fc; no linker stated; also called 1H9-IgG1
Regarding B1, the Kd in test [1] turned out to be 0.14 nM. Besides, the “EC50 (read off the curve)” value in test [2] was ~0.2 nM.

B2: hz1H9v2 sdAb (hz1H9v2 VHH domain fused to human IgG1 xELL Fc region) (Fc fusion)
chain: EVQLVESGGGEVQPGGSLRLSCAASGSIFSISIMGWYRQAPGKERELVASTTSSGTTNYVESVKGRFTISRDNAKNTLYLQMSSLRAEDTAVYYCHAYIATTTDRGYRGYWGQGTLVTVDKTHTCPPCPAPGGPSVFLFPPKPKDTLMISRTPEVTCVVVDVSHEDPEVKFNWYVDGVEVHNAKTKPREEQYNSTYRVVSVLTVLHQDWLNGKEYKCKVSNKALPAPIEKTISKAKGQPREPQVYTLPPSRDELTKNQVSLTCLVKGFYPSDIAVEWESNGQPENNYKTTPPVLDSDGSFFLYSKLTVDKSRWQQGNVFSCSVMHEALHNHYTQKSLSLSPGK
notes: VHH-Fc; no linker stated; also called hz1H9v2-IgG1
B2: the Kd in test [1] turned out to be 0.27 nM. The “EC50 (read off the curve)” value in test [2] was ~0.3 nM.

B3: F02 sdAb (F02 VHH domain fused to human IgG1 xELL Fc region) (Fc fusion)
chain: QVQLVQSGGGLVQAGGSLRLSCAASGSISSYNVVGWYRQLSGNERGGRTMVAQINAYGDTNYANAVVGRFTISRDDAKNTVYLHMSNLKPEDTGVYYCNGQRMLENYTYRDQSWGQGTQVTVDKTHTCPPCPAPGGPSVFLFPPKPKDTLMISRTPEVTCVVVDVSHEDPEVKFNWYVDGVEVHNAKTKPREEQYNSTYRVVSVLTVLHQDWLNGKEYKCKVSNKALPAPIEKTISKAKGQPREPQVYTLPPSRDELTKNQVSLTCLVKGFYPSDIAVEWESNGQPENNYKTTPPVLDSDGSFFLYSKLTVDKSRWQQGNVFSCSVMHEALHNHYTQKSLSLSPGK
notes: VHH-Fc; no linker stated; also called F02-IgG1
For B3, the Kd in test [1] was found to be 15.2 nM; in test [3], 5.15 nM.

B4: hzG11v2 sdAb (hzG11v2 VHH domain fused to human IgG1 xELL Fc region) (Fc fusion)
chain: EVQLVESGGGEVQPGGSLRLSCAASGSTLNIDHIGWYRQAPGKERELVGVISSGAGPNYAESVKGRFTISRDNAKNTVYLQMSSLRAEDTAVYYCNAWIDYGSGLPQNYWGQGTLVTVDKTHTCPPCPAPGGPSVFLFPPKPKDTLMISRTPEVTCVVVDVSHEDPEVKFNWYVDGVEVHNAKTKPREEQYNSTYRVVSVLTVLHQDWLNGKEYKCKVSNKALPAPIEKTISKAKGQPREPQVYTLPPSRDELTKNQVSLTCLVKGFYPSDIAVEWESNGQPENNYKTTPPVLDSDGSFFLYSKLTVDKSRWQQGNVFSCSVMHEALHNHYTQKSLSLSPGK
notes: VHH-Fc; no linker stated; also called hzG11v2-IgG1
Regarding B4, the “EC50 (read off the curve)” value in test [4] was ~2 nM. Moreover, the Kd in test [1] was 2.67 nM.

B5: hzB07v7 sdAb (hzB07v7 VHH domain fused to human IgG1 xELL Fc region) (Fc fusion)
chain: EVQLVESGGGEVQPGGSLRLSCAASGRTISDYVVGWFRQAPGKERAFVAAISRYGTTYYAASVQGRFTISRDNPRNTVYLQVDSLRAEDTAVYYCAALQNDVRNNHSPTSYDYWGQGTLVTVDKTHTCPPCPAPGGPSVFLFPPKPKDTLMISRTPEVTCVVVDVSHEDPEVKFNWYVDGVEVHNAKTKPREEQYNSTYRVVSVLTVLHQDWLNGKEYKCKVSNKALPAPIEKTISKAKGQPREPQVYTLPPSRDELTKNQVSLTCLVKGFYPSDIAVEWESNGQPENNYKTTPPVLDSDGSFFLYSKLTVDKSRWQQGNVFSCSVMHEALHNHYTQKSLSLSPGK
notes: VHH-Fc; no linker stated; also called hzB07v7-IgG1
For B5, the “EC50 (read off the curve)” value in test [4] is ~0.7 nM. The Kd in test [1] was 0.75 nM.

For the origin of these results see patent US20200347133A1 (INHIBRX, published 2020).
